Results taken from patent US20240279344A1 (CDR LIFE, published 2024).

B1: M0855 scFv (scFv)
scFv: QQQLEESGGGLVTPGTPLTLTCTVSGIDLSSYAMGWVRQAPGKGLEWIGTINDGGSAFYASWVKGRFTISRTSTTVDLKITSPTAEDTATYFCAKTYGTNGDVYWGYFNLWGQGTLVTISSGGGGSGGGGSGGGGSGGGGASELVMTQTPASVSEPVGGTVTIKCQASQSIGSNLAWYQQKPGQPPKLLIYYESILASGVPSRFSGSGSGTEYTLTISGAQADDAATYYCQQGYSSSNIDNAFGGGTEVVVK
notes: Rabbit scFv identified by phage display
B2: M0856 scFv (scFv)
scFv: QQQLEESGGGLVTPGTPLTLTCTVSGIDLSSYAMGWVRQAPGKGLEWIGTINDGGSAFYASWVKGRFTISRTSTTVDLKITSPTAEDTATYFCAKTYGTNGDVYWGYFNLWGQGTLVTISSGGGGSGGGGSGGGGSGGGGASELVMTQTPASVSEPVGGTVTIKCQASQSIGSNLAWYQQKPGQPPKLLIYYESILASGVPSRFSGSGSGTEYTLTISGAQADDAATYYCQQGYSSSNILNAFGGGTEVVVK
notes: as for B1
B3: M0857 scFv (scFv)
scFv: QQQLVESGGRLVTPGTPLTLTCTASGIDLNSNAMSWVRQGPGKGLEWIGDIWSGGYTDYASWAKGRFTISKTSTTVDLKMTSLTAADTATYFCARDRLAGDGVVDYDLWGQGTLVTISSGGGGSGGGGSGGGGSGGGGASELDMTQTPASVEVAVGGTVTIKCQASQNIYSNLAWYQQKPGQRPKLLIYGASTLASGVPSRFKGSGSGTEYTLTINGVQAADAATYYCQQGFSSSNVDNVFGGGTEVVVK
notes: as for B1
B4: M0859 scFv (scFv)
scFv: QSVKESGGRLVTPGTPLTLTCTVSGFSLSNYAMSWVRQAPGKGLEYIGIVSSGGTTYYASWAKGRFTISKTSTTVDLKITSPTTEDTATYFCAKDLYYGPTTYSAFNLWGQGTLVTISSGGGGSGGGGSGGGGSGGGGASELVLTQPQSVSGSLGQTVSISCKRARDNIEDYYVHWYQQHPGKTPTIVIHKDDQRPSGVPDRFSGSIDSTSNSASLTITGLLAEDEADYFCQSFDNDASPVFGGGTQLTVTG
notes: as for B1
B5: M0858 scFv (scFv)
scFv: QSVEESGGRLVTPGTPLTLTCTVSGFSLSNYAMSWVRQAPGKGLEYIGIVSSGGTTYYASWAKGRFTISKTSTTVDLKITSPTTEDTATYFCAKDLYYGPTTYSAFNLWGQGTLVTVSSGGGGSGGGGSGGGGSGGGGASELVLTQPQSVSGSLGQTVSISCKRARNNIEDYYVHWYQQHPGRSPTIVIHKDDQRPSGVPDRFSGSIDSTSNSASLTITGLLAEDEADYFCQSFDNNANPVFGGGTQLTVTG
notes: as for B1
B6: M0860 scFv (scFv)
scFv: QSVKESGGRLVTPGTPLTLTCTVSGFSLSNYAMSWVRQAPGKGLEYIGIVSSGGTTYYASWAKGRFTISKTSTTVDLKITSPTTEDTATYFCAKDLYYGPTTYSAFNLWGQGTLVTISSGGGGSGGGGSGGGGSGGGGASELVLTQPQSVSGSLGQTVSISCKRARDNIEDYYVHWYQQYPGKTPTIVIYKDDQRPSGVPDRFSGSIDSTSNSASLTITGLLAEDEADYFCQSFDNNANVVFGGGTQLTVTG
notes: as for B1
B7: M0861 scFv (scFv)
scFv: QSVKESGGRLVTPGTPLTLTCTVSGFSLSNYAMSWVRQAPGKGLEYIGIVSSGGTTYYASWAKGRFTISKTSTTVDLKITSPTTEDTATYFCAKDLYYGPTTYSAFNLWGQGTLVTISSGGGGSGGGGSGGGGSGGGGASELVLTQPASVQVNLGQTVSLTCTADTLSRSYASWYQLKPGQAPVLLIYRDTSRPSGVPDRFSGSSSGNTATLTISGAQAGDEGDYVCATSDGSGSNFQLFGGGTQLTVTG
notes: as for B1
B8: M0862 scFv (scFv)
scFv: PEQLMESGGGLVTPGGVLTLTCTASGFSFSSYGVNWVRQAPGKGLEWIGFIFGDGTTYYANWAKGRFTISKTSTTVDLKMTSPTTEDTATYFCARDGYGGYDYIINLWGQGTLVTVSSGGGGSGGGGSGGGGSGGGGASAQVLTQTPASVSAAVGGTVSISCQSSQSVVNNNWLAWYQQKPGQPPKLLIYKASTLESGVPSRFKGSGSGTQFTLTISGVQADDAATYYCLGEFSCSSADCHAFGGGTELEIL
notes: as for B1
B9: M0863 scFv (scFv)
scFv: PEQLMESGGGLVTPGGVLTLTCTASGFSFSSYGVNWVRQAPGKGLEWIGFIFGDGTTYYANWAKGRFTISKTSTTVDLKMTSPTTEDTATYFCARDGYGGYDYIINLWGQGTLVTVSSGGGGSGGGGSGGGGSGGGGASAQVLTQTPASVSAAVGGTVSISCQSSQSVVNNNWLAWYQQKPGQPPKLLIYKASTLESGVPSRFKGSGSGTQFTLTISGVQADDAATYYCQGAYSGNIYYNAFGGGTEVVVK
notes: as for B1
B10: M0864 scFv (scFv)
scFv: QSVKESGGGLVTPGTPLTLTCTVSGFSLSTYAISWVRQAPGKGLEWIGFIDTVDSAYYASWAKGRFTISKTSSTTVDLKMTSPTTEDTATYFCAKLRYGDYGDYTLWGQGTLVTVSSGGGGSGGGGSGGGGSGGGGASELVMTQTPSPVSGAVGGTVTIKCQASQNIYSYLAWYQQKPGQPPKLLIYKASTLASGVPSRVKGSGSGTEYTLTISGVQAADAATYYCQCTYYDSNTFGGGTEVVVK
notes: as for B1
B11: M0865 scFv (scFv)
scFv: PAALMESGGRLVTPGTPLTLTCTVSGIDLSTFAMTWVRQAPGKGLEWLGIINTGGSAYYTSWAKGRFTISRTSTTVDLKITSPTTEDTATYFCARGDWSSATDLWGQGTLVTISSGGGGSGGGGSGGGGSGGGGASDPDMTQTPSSVSAAVGGTVTINCQASQSVYDNKVLAWYRQKPGQPPKLLIYKASTLASGVPSRFKGRGSGTQFTLTISGVQADDAATYYCLGEFSCSSADCHAFGGGTELEIL
notes: as for B1
B12: M0866 scFv (scFv)
scFv: QSVKESGGRLVTPGTPLTLTCTASGFTISSSAISWVRQAPGKGLEYIGIIRSGGTTDYASWAKGRFAISKTSTTVDLKITSPTTEDTATYFCARDPPYITSTYFDLWGQGTLVTVSSGGGGSGGGGSGGGGSGGGGASELVLTQPQSVSGSLGQTVSISCKRARDSVESYDVHWYQQHPGKTPTIVIYKDDQRPSGVPDRFSGSIDSTSNSASLTITGLLAEDEADYFCQSFDGDAVVFGGGTQLTVTG
notes: as for B1
B13: M0734 (VHH)
VHH: EVQLVESGGGLVQAGGSLRVSCAASGLTFSNYAMGWFQQAPGKEREFVAGISWSGVSTYYADFVKGRFTISRDNAKNTVYLQMNSLKPEDTAVYYCAADNRRYSRGTSISTWRSDYDYWGQGTQVTVSS
notes: Llama-derived VHH
B14: M0735 (VHH)
VHH: EVQLVESGGGLVQAGGSLRLSCAASGLTFRRYTMGWFRQAPGKEREFVAAIVSSDSTNYADSVKGRFTISRDNAKNTVYLEMNSLKPDDTCVYYCAARNSLSLYVSNLGSRYDYWGQGTQVTVSS
notes: Llama-derived VHH
B15: M0736 (VHH)
VHH: EVQLVESGGGLVQAGGSLRLSCTVSGRTSSAFAMGWFRQAPGKEREFVAAINLTGGTTNYAESVKGRFTISRDNAKNTGYLGMSSLKPEDTAVYYCAGRNRWSEGREVAPSSYYYWGQGTQVTVSS
notes: Llama-derived VHH
B16: M0737 (VHH)
VHH: EVQLVESGGGLVQRGDSRRLSCAASGRPFSSFAMGWFRQAPGKEREFVAGISRSAGNTDYSDSVKGRFTISRDNAKNTVYLELNNLTPEDTAVYYCAAQIAIGTGSVFQSNTQYMYWGQGIQVTVSS
notes: Llama-derived VHH
B17: M0738 (VHH)
VHH: EVQLVESGGGLVEAGVSLRLSCAASGRTSENFAMGWFRQAPGNEREFVAAITRNHRTFYKESVKDRFTISRDDAKNTVYLEMNNLVPDDTAVYTCAAKFDPYASASSYYTGYYYWGQGTQVTVSS
notes: Llama-derived VHH
B18: M0740 (VHH)
VHH: EVQLVESGGGLVQPGGSLRLSCLASGFPFSMYTMNWVRQAPGKGLEWVSAISSGGAVTTYADSVKGRFTISRDNAKNTLYLQMSSLKPEDTAVYYCESSNNRGQGTQVTVSS
notes: Llama-derived VHH
B19: M0741 (VHH)
VHH: EVQLVESGGGAVQAGGSQRLSCTVSGRPFTKYAMGWFRQPPEKEREFVATSTWEGSTYYADSVKGRFTISRDNANNIIDLQMNTLKPEDTAVYFCAASNTYNADTTYYAKSTAFNFWGQGTQVTVSS
notes: Llama-derived VHH
B20: M0744 (VHH)
VHH: EVQLVESGGGLVQPGGSLRLSCAASGSIFSINDMDWYRQAPGKQRELVAAITRGGSTNYADSVKGRFTISRDNAKNTVYLQMNSLKPEDTAVYYCNAEVSTETTGWRTWRDYWGQGTQVTVSS
notes: Llama-derived VHH
B21: M0745 (VHH)
VHH: EVQLVESGGGLVQAGGSLRLSCAVSGRRVSIYGMGWYRLAPGKQREMVASITSGGITTYADSVKGRFSISRDNAKNTVYLQMNSLKPEDTAVYYCNYHDYRVQGESWGQGTQVTVSS
notes: Llama-derived VHH
B22: M0746 (VHH)
VHH: EVQLVESGGGLVQAGGSLRLSCAASGRTFSNNAMGWFRQGPDQEREFVAAISRSGGGSGGAPLYADSVKGRFTISRDNAKNTMSLSMNSLSPEDTAVYYCAARSLYKVAGSDDLSDYAYWGQGTQVTVSS
notes: Llama-derived VHH
B23: M0748 (VHH)
VHH: EVQLVESGGGAVQAGGSLRLSCTVSGRPFTKYAWGWFRQPPEKEREFVATSTWDVGSTYYADSAKGRFTISRDNANNIIDLQMNSLKPEDTAVYYCAASNTYSSDITYYAKPMAFNFWGQGTQVTVSS
notes: Llama-derived VHH
B24: M0749 (VHH)
VHH: EVQLVESGGGSVQPGGSLRLSCAASGFTFSRSTMSWVRQAPGKEIEWVSSVSGSGGVTTYADSVKGRFTISRDNAKNTLYLQMSSLKPEDTAVYYCGNSNARGQGTQVTVSS
notes: Llama-derived VHH
B25: M0750 (VHH)
VHH: MEVQLVESGGGLVQPGGSLRLSCAASGFTFSRYTMSWVRQAPGEGLEWVSSIGSGGGPTTYANSVKGRFTVSRDNAKNTLWLQMNNLKPEDTALYYCQGGGNRGQGAQVTVSS
notes: Llama-derived VHH

Each binder was assayed against T1, HLA-A2/MAGE-A4 complex, recombinant (HLA-A*02:01 extracellular domain, human b2m, MAGE-A4 peptide 230-239 …) (human, UniProt P04439 25-299 at identity 0.94); P61769 21-119) (assay: phage display biopanning and screening).
T1 construct: also called MAGE-A4 pMHC; MAGE-A4/HLA-A2 complex

Row | Binder | binding result
1 | B1 | binds
2 | B2 | binds
3 | B3 | binds
4 | B4 | binds
5 | B5 | binds
6 | B6 | binds
7 | B7 | binds
8 | B8 | binds
9 | B9 | binds
10 | B10 | binds
11 | B11 | binds
12 | B12 | binds
13 | B13 | binds
14 | B14 | binds
15 | B15 | binds
16 | B16 | binds
17 | B17 | binds
18 | B18 | binds
19 | B19 | binds
20 | B20 | binds
21 | B21 | binds
22 | B22 | binds
23 | B23 | binds
24 | B24 | binds
25 | B25 | binds
